Experiment in all cases: cell-based or functional assay
The target in assay [1] is T1, endogenous IL-10 receptors of MC/9 cells (mouse mast cell line) (mouse, UniProt Q61727 17-575).
T1 sequence (looked up): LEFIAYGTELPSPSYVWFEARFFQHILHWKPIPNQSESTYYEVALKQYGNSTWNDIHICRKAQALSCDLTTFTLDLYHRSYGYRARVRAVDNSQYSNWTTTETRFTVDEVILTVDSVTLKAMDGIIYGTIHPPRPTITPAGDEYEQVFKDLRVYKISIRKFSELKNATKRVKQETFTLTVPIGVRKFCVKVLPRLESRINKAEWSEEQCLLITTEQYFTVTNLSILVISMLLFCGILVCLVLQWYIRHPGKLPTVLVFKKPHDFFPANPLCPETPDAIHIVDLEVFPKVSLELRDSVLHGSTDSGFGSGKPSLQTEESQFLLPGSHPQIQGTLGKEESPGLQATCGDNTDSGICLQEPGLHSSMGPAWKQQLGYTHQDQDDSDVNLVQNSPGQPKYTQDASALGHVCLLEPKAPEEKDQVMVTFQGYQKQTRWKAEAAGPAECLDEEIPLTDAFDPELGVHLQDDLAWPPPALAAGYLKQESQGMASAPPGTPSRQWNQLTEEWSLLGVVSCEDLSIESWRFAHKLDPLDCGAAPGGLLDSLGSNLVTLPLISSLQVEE

Assay [2] has as its target T1, endogenous IL-10 receptors of MC/9 …. The source holds these as a separate data set.
Assay [3] has the same target. This is another data set of the same source.
For assay [4] the target is unchanged. The source holds these as a separate data set.

“And” between values parts separate entries of the source, which are not always exact repeats. Equal entries are not always repeated. Where two headings read alike, the source gives them in different places.

B1: IL-10 wild type (mature wild type human IL-10) (ligand)
chain: SPGQGTQSENSCTHFPGNLPNMLRDLRDAFSRVKTFFQMKDQLDNLLLKESLLEDFKGYLGCQALSEMIQFYLEEVMPQAENQDPDIKAHVNSLGENLKTLRLRLRRCHRFLPCENKSKAVEQVKNAFNKLQEKGIYKAMSEFDIFINYIEAYMTMKIRN
B1: the “EC50 (ng/ml), MC/9 proliferation assay” value in assay [1] was 0.14 ng/mL; in assay [2] it was 0.303 ng/mL and 0.105 ng/mL; in assay [3] it was 1 ng/mL; in assay [4], 0.42 ng/mL.

B2: 10K PEG-hIL-10 wt (ligand)
chain: B1 chain
modifications: N-terminal PEGylation with 10K PEG
Consider B2, for which, in assay [1], the “EC50 (ng/ml), MC/9 proliferation assay” value is 21.8 ng/mL.

B3: 5K PEG-hIL-10 wt (ligand)
chain: B1 chain
modifications: N-terminal PEGylation with 5K PEG
B3: the “EC50 (ng/ml), MC/9 proliferation assay” value in assay [1] is 4.76 ng/mL.

These data come from patent publication US20220009986A1 (AMBRX, published 2022).
